The values that follow come from paper PMC6155051, “Structures of insect Imp-L2 suggest an alternative strategy for regulating the bioavailability of insulin-like hormones” (Nature Communications, 2018).

Data set [1] deals with Drosophila imaginal morphogenesis protein-late 2 protein (Imp-L2) (Drosophila melanogaster) (UniProt Q09024). The data set can be described thus: ITC; Imp-L2 (12.8-22.6 uM) in the cell, hormone about tenfold greater injected; 50 mM Tris, 150 mM NaCl, pH 7.4; 25 C; hormone concentrations adjusted to a 1:1 stoichiometry. Background: In ITC the heat of successive injections is recorded.

Data set [2] has the same target. Put plainly: ITC; DILP5:Imp-L2 binding as a function of salt: 300 mM NaCl.
In data set [3] the target is T1, Drosophila imaginal morphogenesis protein-late 2 protein (Imp-L2) (Drosophila melanogaster, UniProt Q09024 26-267).
T1 chain: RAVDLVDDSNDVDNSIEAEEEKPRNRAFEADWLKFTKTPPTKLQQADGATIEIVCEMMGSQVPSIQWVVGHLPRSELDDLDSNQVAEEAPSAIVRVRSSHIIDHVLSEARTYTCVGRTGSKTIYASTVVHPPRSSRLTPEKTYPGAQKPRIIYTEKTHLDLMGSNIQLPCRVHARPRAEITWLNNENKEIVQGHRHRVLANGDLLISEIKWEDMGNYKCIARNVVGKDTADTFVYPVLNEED
The data set can be described thus: ITC; 300 mM NaCl (legend says 400 mM).

The target in data set [4] is Drosophila imaginal morphogenesis protein-late 2 protein (Imp-L2) (Drosophila melanogaster) (UniProt Q09024). Put plainly: ITC; DILP5:Imp-L2 binding as a function of salt: 300 mM NaCl. This is another data set of the same source.
Data set [5] deals with the molecule itself. Put plainly: SEC-MALS; ligand-free Imp-L2, 1 mg/mL, 50 mM Tris pH 7.4, 50 mM NaCl; Superdex S200 10/300.

Turning to “Insulin X14 (ProB28Asp), fully monomeric mutant of human insulin (ligand)”, the Kd in data set [1] is 135000 pM.

B1: Drosophila insulin-like peptide 5, C4 variant (B2-B29) (ligand)
chain 1: NSLRACGPALMDMLRVACPNGFNSMFAK
chain 2: DFRGVVDSCCRNSCSFSTLRAYCDS
In the case of B1, the Kd was 5 pM in data set [2], 8000 pM in data set [1], 5.4 pM in data set [3] and 1 pM in data set [4].

B2: Drosophila imaginal morphogenesis protein-late 2 protein (Imp-L2) (natural protein, Drosophila melanogaster, UniProt Q09024 26-267, looked up)
chain: T1 chain
notes: signal peptide in the construct: full-length Drosophila Imp-L2 with the native signal peptide, secreted into the medium; After 3C cleavage, residues of the protease site should remain at the C-terminus (surmised); A selenomethionine-labelled form was also made; the apo structure was solved by MAD; also called Dm Imp-L2; apo-Imp-L2; source: baculovirus-infected Sf9 cells, purified from conditioned …
In the case of B2, in data set [5], the “stoichiometry N” value turned out to be 2.

Usually Kd stands for the concentration at which binding is half-saturated. One may read the stoichiometry N as a count of units in the complex or per binding partner.
